Results: article PMC7938364, “Multimeric antibodies from antigen-specific human IgM^+ memory B cells restrict Plasmodium parasites” (The Journal of Experimental Medicine, 2021)

Target: T1, recombinant P. falciparum 3D7 MSP1 (p19 fragment) (Plasmodium falciparum (3D7))
T1 construct: merozoite surface protein 1 of P. falciparum 3D7, the 19 kDa C-terminal fragment (MSP1-19, p19); Coated on ELISA plates and used in solution in the BLI without avidity; The ELISA methods say only 'recombinant P. falciparum MSP1'; also called MSP1-19; merozoite surface protein 1 (the 1-19 fragment)
T1 chain: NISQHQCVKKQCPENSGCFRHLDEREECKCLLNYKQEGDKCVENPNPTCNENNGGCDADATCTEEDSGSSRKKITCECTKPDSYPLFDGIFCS
Test: ELISA; plates coated with recombinant MSP1, AMA1 or OVA (each 5 µg/ml in PBS); purified recombinant antibodies at a maximum of 5-50 nM with 10-fold serial dilutions, 2 h room temperature or overnight 4°C; HRP anti-human IgG1
Details: both partners purified

B1: MaliM03 m-IgG (antibody, V domains shown)
VH: QVQLQQWGAGLLKPSETLSLTCAVYGGSFSGYYWTWIRQPPGKGLEWIGEINNSGKTNYNPSLKSRVSISIDTSKNQFSLKVTSVTAADTAVYYCARGPQQHLEPPFDYWGHGTLVTVSS
VL: QSVLTQPPSASGTPGQRVTISCSGSNSNIATNYVCWYQQYPGTAPKPLIYRTDQRPSGVPDRFSGSKSGTSASLAISGLRSEDEADYYCATWDDSLSAWVFGGGTKLTVL
notes: VH of MaliM03, as the VH of m1; immunoglobulin gamma-1 heavy chain constant region (vector AbVec-hIgG1) with L309C; human IgM tail piece, 18 amino acids, added to the IgG constant region; as the light chain of m1; Self-assembles into multimers (negative-stain EM); also called multimeric IgG; modified IgG antibody; source: 293T cells, transient transfection, purified from supernatant (HiTrap …)
Question: For B1, which “fold better binding than its monomeric form” value is on record?
Answer: The value was ~10 fold.
